# Laboratory results taken from PMC7828300.
# Target: AAV12 capsid viral protein (VP) (Adeno-associated virus 12)
# Experiment: cryo-EM structure
substance,measurement,value
AAV12 capsid viral protein (VP) (natural protein),stoichiometry N,60
